{"source": "patent CN114907476A", "key": {"[1]": {"biological_target": "表达于CHOK1细胞表面的人TIGIT (CHOK1/人TIGIT细胞, 吉满生物 GM-C01116) (human) (UniProt Q495A1)", "sequence (Q495A1 22-244, one chain of several)": "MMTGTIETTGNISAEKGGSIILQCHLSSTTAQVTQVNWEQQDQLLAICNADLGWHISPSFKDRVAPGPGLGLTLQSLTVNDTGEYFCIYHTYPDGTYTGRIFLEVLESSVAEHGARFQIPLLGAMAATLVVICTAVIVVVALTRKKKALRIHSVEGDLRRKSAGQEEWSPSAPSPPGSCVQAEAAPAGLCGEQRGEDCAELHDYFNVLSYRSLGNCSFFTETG", "experiment": "flow cytometry competition, inhibition of Biotinylated-CD155 (0.6μg/ml) binding to CHOK1/human TIGIT cells"}, "[2]": {"biological_target": "表达于CHOK1细胞表面的人TIGIT (CHOK1/人TIGIT细胞, 吉满生物 GM-C01116) (human) (UniProt Q495A1)", "experiment": "flow cytometry competition, inhibition of Biotinylated-CD155 (0.6μg/ml) binding to CHOK1/hTIGIT cells"}, "[3]": {"biological_target": "表达于CHOK1细胞表面的人TIGIT (CHOK1/人TIGIT细胞, 吉满生物 GM-C01116) (human) (UniProt Q495A1)", "experiment": "flow cytometry on CHOK1/hTIGIT cells"}, "[4]": {"biological_target": "Jurkat-hTIGIT-NFAT-CD226细胞上过表达的人TIGIT (human)", "experiment": "cell-based or functional assay"}}}
{"substance": "IgG对照 (antibody)", "values": [{"measurement": "最大抑制", "setting": "[1]", "result": 3.03, "unit": "%"}, {"measurement": "最大抑制", "setting": "[2]", "result": 6.36, "unit": "%"}, {"measurement": "最大MFI", "setting": "[3]", "result": 229, "unit": "MFI"}, {"measurement": "Max RLU", "setting": "[4]", "result": 7110, "unit": "RLU"}, {"measurement": "最大RLU", "setting": "[4]", "result": 6320, "unit": "RLU"}]}
